This note sets out measurements from patent US20250002588A1 (DIAGONAL THERAPEUTICS, published 2025).

The target in the assay is ALK-1/BMPR-2 receptor pair of the PathHunter U2Os dimerization cells (DiscoverX 93-0962C3) (UniProt P37023 22-503; Q13873 27-1038). Put plainly: cell-based or functional assay.
ALK-1/BMPR-2 receptor pair of the PathHunter U2Os dimerization cells (DiscoverX 93-0962C3), sequence (P37023 22-503, chain 1 of 2): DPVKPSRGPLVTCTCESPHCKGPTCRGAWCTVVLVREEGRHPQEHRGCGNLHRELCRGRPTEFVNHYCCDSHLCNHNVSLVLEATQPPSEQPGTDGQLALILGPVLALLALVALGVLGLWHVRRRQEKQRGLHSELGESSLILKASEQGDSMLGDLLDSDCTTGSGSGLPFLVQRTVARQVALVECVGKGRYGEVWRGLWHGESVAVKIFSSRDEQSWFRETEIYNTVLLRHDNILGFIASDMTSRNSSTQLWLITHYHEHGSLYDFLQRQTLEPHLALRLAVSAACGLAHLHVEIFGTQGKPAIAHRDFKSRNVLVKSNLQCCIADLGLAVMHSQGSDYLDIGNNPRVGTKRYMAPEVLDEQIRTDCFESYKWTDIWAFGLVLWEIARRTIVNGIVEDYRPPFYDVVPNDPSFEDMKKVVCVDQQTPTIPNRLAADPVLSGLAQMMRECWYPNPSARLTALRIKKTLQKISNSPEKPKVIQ
ALK-1/BMPR-2 receptor pair of the PathHunter U2Os dimerization cells (DiscoverX 93-0962C3), sequence (Q13873 27-1038, chain 2 of 2): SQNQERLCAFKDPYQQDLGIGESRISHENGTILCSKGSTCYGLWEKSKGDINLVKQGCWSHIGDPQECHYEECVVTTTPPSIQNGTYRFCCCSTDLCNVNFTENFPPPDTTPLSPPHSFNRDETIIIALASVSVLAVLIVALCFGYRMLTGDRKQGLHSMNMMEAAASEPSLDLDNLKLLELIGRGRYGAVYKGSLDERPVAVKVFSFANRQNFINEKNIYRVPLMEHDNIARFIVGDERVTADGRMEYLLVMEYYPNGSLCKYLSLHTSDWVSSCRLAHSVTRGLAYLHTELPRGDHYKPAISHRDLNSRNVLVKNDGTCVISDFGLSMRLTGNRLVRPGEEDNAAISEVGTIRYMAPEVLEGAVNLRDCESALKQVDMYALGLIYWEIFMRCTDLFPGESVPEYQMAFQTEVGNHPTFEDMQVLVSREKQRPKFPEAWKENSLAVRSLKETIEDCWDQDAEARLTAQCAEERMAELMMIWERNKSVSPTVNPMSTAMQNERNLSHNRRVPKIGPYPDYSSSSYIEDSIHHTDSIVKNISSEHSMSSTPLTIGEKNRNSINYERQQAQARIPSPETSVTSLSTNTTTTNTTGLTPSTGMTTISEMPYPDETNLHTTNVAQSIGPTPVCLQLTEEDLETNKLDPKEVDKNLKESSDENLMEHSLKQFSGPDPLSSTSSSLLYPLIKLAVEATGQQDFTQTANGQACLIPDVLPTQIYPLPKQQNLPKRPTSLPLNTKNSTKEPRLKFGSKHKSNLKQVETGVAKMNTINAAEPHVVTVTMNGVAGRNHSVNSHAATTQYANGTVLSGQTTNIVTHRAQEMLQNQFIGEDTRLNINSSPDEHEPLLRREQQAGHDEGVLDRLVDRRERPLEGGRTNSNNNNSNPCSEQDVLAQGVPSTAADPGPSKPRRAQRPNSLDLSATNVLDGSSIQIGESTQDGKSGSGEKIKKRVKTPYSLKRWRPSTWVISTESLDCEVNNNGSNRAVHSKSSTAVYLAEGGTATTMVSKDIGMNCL

B1: DGL269 (bispecific antibody)
chain 1: EVQLLESGGGLVQPGGSLRLSCAASGFTFSNAWMNWVRQAPGKGLEWVSSISSSSSYIYYADSVKGRFTISRDNSKNTLYLQMNSLRAEDTAVYYCARAVAAGGMFWGLDQWGQGTLVTVTSSGGGGSGGGGSGGGGSQSVLTQPPSASGTPGQRVTISCSGSRSNIGSNSVHWYQQLPGTAPKLLIYGNSNRPSGVPDRFSGSKSGTSASLAISGLRSEDEADYYCQSYDSSLNDHVVFGGGTKLTVLGGGGSGGGGSGGGGSGVECPPCPAPPVAGPSVFLFPPKPKDTLMISRTPEVTCVVVDVSHEDPEVQFNWYVDGVEVHNAKTKPREEQFNSTFRVVSVLTVVHQDWLNGKEYKCKVSNKGLPAPIEKTISKTKGQPREPQVYTLPPCREEMTKNQVSLWCLVKGFYPSDIAVEWESNGQPENNYKTTPPMLDSDGSFFLYSKLTVDKSRWQQGNVFSCSVMHEALHNHYTQKSLSLSPG
chain 2: EVQLLESGGGLVQPGGSLRLSCAASGFTFSNAWMNWVRQAPGKGLEWVSSISSSSSYIYYADSVKGRFTISRDNSKNTLYLQMNSLRAEDTAVYYCARAVAAGGMFWGLDQWGQGTLVTVTSSGGGGSGGGGSGGGGSQSVLTQPPSASGTPGQRVTISCSGSRSNIGSNSVHWYQQLPGTAPKLLIYGNSNRPSGVPDRFSGSKSGTSASLAISGLRSEDEADYYCQSYDSSLNDHVVFGGGTKLTVLGGGGSGGGGSGGGGSGVECPPCPAPPVAGPSVFLFPPKPKDTLMISRTPEVTCVVVDVSHEDPEVQFNWYVDGVEVHNAKTKPREEQFNSTFRVVSVLTVVHQDWLNGKEYKCKVSNKGLPAPIEKTISKTKGQPREPQVCTLPPSREEMTKNQVSLSCAVKGFYPSDIAVEWESNGQPENNYKTTPPMLDSDGSFFLVSKLTVDKSRWQQGNVFSCSVMHEALHNHYTQKSLSLSPG
Turning to B1, the “% Emax BMP9” value amounted to 0% and the “Emax (RLU)” value was -8300 RLU.

B2: DGL268 (bispecific antibody)
chain 1: EVQLLESGGGLVQPGGSLRLSCAASGFTFSIYAMSWVRQAPGKGLEWVSAISGSGGSTYYADSVKGRFTISRDNSKNTLYLQMNSLRAEDTAVYYCARDFDYWGQGTLVTVTSSGGGGSGGGGSGGGGSQSVLTQPPSASGTPGQRVTISCSGSSSNIGSNYVYWYQQLPGTAPKLLIYGNINRPSGVPDRFSGSKSGTSASLAISGLRSEDEADYYCAAWDDSLNGRVFGGGTKLTVLGGGGSGGGGSGGGGSGVECPPCPAPPVAGPSVFLFPPKPKDTLMISRTPEVTCVVVDVSHEDPEVQFNWYVDGVEVHNAKTKPREEQFNSTFRVVSVLTVVHQDWLNGKEYKCKVSNKGLPAPIEKTISKTKGQPREPQVYTLPPCREEMTKNQVSLWCLVKGFYPSDIAVEWESNGQPENNYKTTPPMLDSDGSFFLYSKLTVDKSRWQQGNVFSCSVMHEALHNHYTQKSLSLSPG
chain 2: EVQLLESGGGLVQPGGSLRLSCAASGFTFSIYAMSWVRQAPGKGLEWVSAISGSGGSTYYADSVKGRFTISRDNSKNTLYLQMNSLRAEDTAVYYCARDFDYWGQGTLVTVTSSGGGGSGGGGSGGGGSQSVLTQPPSASGTPGQRVTISCSGSSSNIGSNYVYWYQQLPGTAPKLLIYGNINRPSGVPDRFSGSKSGTSASLAISGLRSEDEADYYCAAWDDSLNGRVFGGGTKLTVLGGGGSGGGGSGGGGSGVECPPCPAPPVAGPSVFLFPPKPKDTLMISRTPEVTCVVVDVSHEDPEVQFNWYVDGVEVHNAKTKPREEQFNSTFRVVSVLTVVHQDWLNGKEYKCKVSNKGLPAPIEKTISKTKGQPREPQVCTLPPSREEMTKNQVSLSCAVKGFYPSDIAVEWESNGQPENNYKTTPPMLDSDGSFFLVSKLTVDKSRWQQGNVFSCSVMHEALHNHYTQKSLSLSPG
As for B2, the “% Emax BMP9” value was 1%, the “EC50” value was 0.1 nM and the “Emax (RLU)” value was determined as 35200 RLU.

B3: DGL270 (bispecific antibody)
chain 1: EVQLLESGGGLVQPGGSLRLSCAASGFTFSSYAMSWVRQAPGKGLEWVANINQDGSEKNYVDSMRGRFTISRDNSKNTLYLQMNSLRAEDTAVYYCAREFDYWGQGTLVTVTSSGGGGSGGGGSGGGGSQSVLAQPPSASGTPGQRVTISCSGSSSNIGSNYVYWYQQLPGTAPKLLIYGNNKRPSGVPDRFSGSKSGTSASLAISGLRSEDEADYYCAAWDDSLNGRVFGGGTKLTVLGGGGSGGGGSGGGGSGVECPPCPAPPVAGPSVFLFPPKPKDTLMISRTPEVTCVVVDVSHEDPEVQFNWYVDGVEVHNAKTKPREEQFNSTFRVVSVLTVVHQDWLNGKEYKCKVSNKGLPAPIEKTISKTKGQPREPQVYTLPPCREEMTKNQVSLWCLVKGFYPSDIAVEWESNGQPENNYKTTPPMLDSDGSFFLYSKLTVDKSRWQQGNVFSCSVMHEALHNHYTQKSLSLSPG
chain 2: EVQLLESGGGLVQPGGSLRLSCAASGFTFSSYAMSWVRQAPGKGLEWVANINQDGSEKNYVDSMRGRFTISRDNSKNTLYLQMNSLRAEDTAVYYCAREFDYWGQGTLVTVTSSGGGGSGGGGSGGGGSQSVLAQPPSASGTPGQRVTISCSGSSSNIGSNYVYWYQQLPGTAPKLLIYGNNKRPSGVPDRFSGSKSGTSASLAISGLRSEDEADYYCAAWDDSLNGRVFGGGTKLTVLGGGGSGGGGSGGGGSGVECPPCPAPPVAGPSVFLFPPKPKDTLMISRTPEVTCVVVDVSHEDPEVQFNWYVDGVEVHNAKTKPREEQFNSTFRVVSVLTVVHQDWLNGKEYKCKVSNKGLPAPIEKTISKTKGQPREPQVCTLPPSREEMTKNQVSLSCAVKGFYPSDIAVEWESNGQPENNYKTTPPMLDSDGSFFLVSKLTVDKSRWQQGNVFSCSVMHEALHNHYTQKSLSLSPG
With B3, the “% Emax BMP9” value came to 0% and the “Emax (RLU)” value was 9200 RLU.

B4: DGL271 (bispecific antibody)
chain 1: EVQLLESGGGLVQPGGSLRLSCAASGFTFSDYYMTWIRQAPGKGLEWVSSISGGSTYYADSRKGRFTISRDNSENTLYLQMNSLRAEDTAVYYCARDFGVAGWFGQYGMDVWGQGTLVTVSSGGGGSGGGGSGGGGSQSVLTQPPSASGTPGQRVTISCTGSSSNIGAGYDVHWYQQLPGTAPKLLIYRSNQRPSGVPDRFSGSKSGTSASLAISGLRSEDEADYYCSSYAGNYNLVFGGGTKLTVLGGGGSGGGGSGGGGSGVECPPCPAPPVAGPSVFLFPPKPKDTLMISRTPEVTCVVVDVSHEDPEVQFNWYVDGVEVHNAKTKPREEQFNSTFRVVSVLTVVHQDWLNGKEYKCKVSNKGLPAPIEKTISKTKGQPREPQVYTLPPCREEMTKNQVSLWCLVKGFYPSDIAVEWESNGQPENNYKTTPPMLDSDGSFFLYSKLTVDKSRWQQGNVFSCSVMHEALHNHYTQKSLSLSPG
chain 2: EVQLLESGGGLVQPGGSLRLSCAASGFTFSDYYMTWIRQAPGKGLEWVSSISGGSTYYADSRKGRFTISRDNSENTLYLQMNSLRAEDTAVYYCARDFGVAGWFGQYGMDVWGQGTLVTVSSGGGGSGGGGSGGGGSQSVLTQPPSASGTPGQRVTISCTGSSSNIGAGYDVHWYQQLPGTAPKLLIYRSNQRPSGVPDRFSGSKSGTSASLAISGLRSEDEADYYCSSYAGNYNLVFGGGTKLTVLGGGGSGGGGSGGGGSGVECPPCPAPPVAGPSVFLFPPKPKDTLMISRTPEVTCVVVDVSHEDPEVQFNWYVDGVEVHNAKTKPREEQFNSTFRVVSVLTVVHQDWLNGKEYKCKVSNKGLPAPIEKTISKTKGQPREPQVCTLPPSREEMTKNQVSLSCAVKGFYPSDIAVEWESNGQPENNYKTTPPMLDSDGSFFLVSKLTVDKSRWQQGNVFSCSVMHEALHNHYTQKSLSLSPG
B4: the “% Emax BMP9” value was found to be 2% and the “Emax (RLU)” value stood at 55900 RLU.

In general, EC50 refers to the concentration at which the effect is half-maximal.
